Experiment [1] has as its target human PD-L1 ECD-CD4TM-GFP expressed on HEK-293 / HEK-293T cells (human) (UniProt Q9NZQ7). Nature of the experiment: FACS on HEK-293 cells transfected with hPD-L1-GFP, secondary antibody alone (negative control).
In experiment [2] the target is mouse PD-L1-CD4TM-GFP expressed on HEK-293 cells (mouse) (UniProt Q9EP73). The experiment can be described thus: FACS on HEK-293 cells transfected with mPD-L1-GFP, secondary antibody alone (negative control).
Experiment [3] has as its target cynomolgus PD-L1-CD4TM-GFP expressed on HEK-293 cells (cynomolgus) (UniProt G7PSE7). Nature of the experiment: FACS on HEK-293 cells transfected with cyno PD-L1-GFP, secondary antibody alone (negative control).
UniProt G7PSE7, sequence (G7PSE7 entry or part of it limits assumed): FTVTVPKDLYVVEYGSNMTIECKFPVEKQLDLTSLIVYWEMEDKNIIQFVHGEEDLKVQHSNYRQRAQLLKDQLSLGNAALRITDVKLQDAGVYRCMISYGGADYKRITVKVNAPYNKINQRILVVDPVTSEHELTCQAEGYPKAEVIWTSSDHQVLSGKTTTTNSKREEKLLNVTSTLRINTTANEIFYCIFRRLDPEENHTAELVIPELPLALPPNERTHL
Experiment [4] concerns the target human PD-L1 ECD-CD4TM-GFP expressed on HEK-293 / HEK-293T cells (human) (UniProt Q9NZQ7). The experiment can be described thus: FACS on HEK-293T cells expressing hPD-L1-GFP, control panel headed anti-mFc-PE in the row 'No antibody' (taken as the control without PD-1-Fc of paragraph 289).

UniProt Q9NZQ7, sequence (Q9NZQ7 19-238): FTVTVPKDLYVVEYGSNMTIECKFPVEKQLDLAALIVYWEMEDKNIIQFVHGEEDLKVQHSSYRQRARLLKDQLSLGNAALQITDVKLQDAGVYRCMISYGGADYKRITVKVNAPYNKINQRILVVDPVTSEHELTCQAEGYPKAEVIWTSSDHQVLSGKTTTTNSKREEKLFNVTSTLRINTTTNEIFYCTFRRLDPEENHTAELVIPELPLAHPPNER
UniProt Q9EP73, sequence (Q9EP73 19-239): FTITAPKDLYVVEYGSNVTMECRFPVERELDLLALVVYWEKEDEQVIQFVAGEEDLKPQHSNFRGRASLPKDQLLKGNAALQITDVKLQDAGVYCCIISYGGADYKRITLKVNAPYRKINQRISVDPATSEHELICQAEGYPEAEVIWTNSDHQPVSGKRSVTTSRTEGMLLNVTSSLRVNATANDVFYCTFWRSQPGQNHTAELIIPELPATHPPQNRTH

As to Only anti-mFc Ab (antibody), the MFI in experiment [1] worked out at 6.
On to Only anti-hFc Ab (antibody), for which the MFI in experiment [2], in experiment [3] and in experiment [1] was 3 throughout.
Turning to anti-mFc-PE (antibody), in experiment [4], the MFI was 10.

These data come from US20180346571A1.
